This is an account of results in the RNAGym collection of RNA variant scans (doi:10.1073/pnas.2313332121).

This sample holds only a part of the variants without activity. Some results are limits rather than exact numbers.

B1: TPR 5TU (parent)
chain: GGAUCUUCUCGAUCUAACAAAAAAGACAAAUCUGCCACAAAGCUUGAGAGCAUCUUCGGAUGCAGAGGCGGCAGCCUUCGGUGGCGCGAUAGCGCCAACGUUCUCAACUAUGACACGCAAAACGCGUGCUCCGUUGAAUGGAGUUUAUCAUG

Variants of B1 are the subject of the data set. In words: polymerase ribozyme fitness, log enrichment relative to wild type (log ratio); higher = more active; in vitro selection for triplet polymerase activity. The procedure, abridged: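 Genotype fitness is the logarithm of its enrichment divided by wild-type enrichment, using inverse-variance-weighted averages of replicates. That logarithm is base 2. Enrichment was measured by Illumina sequencing of input and output libraries from one triplicate in vitro selection round, with frozen incubation at −7 °C, on PCR-built, transcribed mutant libraries of each subunit of a heterodimeric triplet polymerase ribozyme, retaining genotypes with ≥10 input reads and ≥1 read per output.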
As for GGAUCUUCUCGAUCUAACAAAAAAGACAAAUCUGCCACAAAGCUUGAGAGCAUCUUCGGAUGCAGAGGCGGCAGCCUUCGGUGGCGCGAUAGCGCUAACGUUCUGAACUAUGACACGCAAAACGCGUGCUCCGUUGAAUGGAGUUUAUCAUG [C96U C105G], the “polymerase ribozyme fitness (log ratio)” value is -2.46.

Turning to GGAUCUUCUCGAUCUAACAAAAAAGACAAAUCUGCCACAAAGCUUGAGAGCAUCUUCGGAUGCAGAGGCGGCAGCCUUCGGUGGCGCGAUAGCGCUAACGUUCUCAACUAUGACACGCAAAACGCGUGCUCCGUUGAAUGGAGUUUAGCAUG [C96U U148G], the “polymerase ribozyme fitness (log ratio)” value was -3.13.

With GGAUCUUCUCGAUCUAACAAAAAAGACAAAUCUGCCACAAAGCUUGAGAGCAUCUUCGGAUGCAGAGGCGGCAGCCUUCGGUGGCGCGAUAGCGCUAACGUUCUCAACUAUGACACGCAAAACGCGUGCUCCGUUGAAUGGAGUUUAACAUG [C96U U148A], the “polymerase ribozyme fitness (log ratio)” value was -3.33.

GGAUCUUCUCGAUCUAACAAAAAAGACAAAUCUGCCACAAAGCUUGAGAGCAUCUUCGGAUGCAGAGGCGGCAGCCUUCGGUGGCGCGAUAGCGCUAACGUUCUCAACUAUGACAUGCAAAACGCGUGCUCCGUUGAAUCGAGGUUAUCAUG [C96U C116U G140C U144G]: the “polymerase ribozyme fitness (log ratio)” value is -4.04.

As for GGAUCUUCUCGAUCUAACAAAAAAGACAAAUCUGCCACAAAGCUUGAGAGCAUCUUCGGAUGCAGAGGCGGCAGCCUUCGGUGGCGCGAUAGCGCUAACGUUCUCAACUAUGACACGCAAAAUGCGUGCUCCGUUGAAUGGAGUUUAUCAUG [C96U C123U], the “polymerase ribozyme fitness (log ratio)” value was -0.655.

With GGAUCUUCUCGAUCUAACAAAAAAGACAAAUCUGCCACAAAGCUUGAGAGCAUCUUCGGAUGCAGAGGCGGCAGCCUUCGGUGGCGCGAUAGCGCUAACGUUCUCAACUAUGACACGCAAAAAGCGUGCUCCGUUGAAUGGAGUUUAUCAUG [C96U C123A], the “polymerase ribozyme fitness (log ratio)” value was -0.106.

GGAUCUUCUCGAUCUAACAAAAAAGACAAAUCUGCCACAAAGCUUGAGAGCAUCUUCGGAUGCAGAGGCGGCAGCCUUCGGUGGCGCGAUAGCGCCGACGUUCUCAACUAUGACACGCAAAACGCGUGCUCCGUUGAAUGGAGUUUAUCAUG [A97G]: the “polymerase ribozyme fitness (log ratio)” value was -0.12.

As to GGAUCUUCUCGAUCUAACAAAAAAGACAAAUCUGCCACAAAGCUUGAGAGCAUCUUCGGAUGCAGAGGCGGCAGCCUUCGGUGGCGCGAUAGCGCCCACGUUCUCAACUAUGACACGCAAAACGCGUGCUCCGUUGAAUGGAGUUUAUCAUG [A97C], the “polymerase ribozyme fitness (log ratio)” value came to 0.773.

Regarding GGAUCUUCUCGAUCUAACAAAAAAGACAAAUCUGCCACAAAGCUUGAGAGCAUCUUCGGAUGCAGAGGCGGCAGCCUUCGGUGGCGCGAUAGCGCUAACGUUCGCAACUAUGACACGCAAAACGCGUGGUCCGUUGAAUGGAGUUUAUCAUG [C96U U104G C129G], the “polymerase ribozyme fitness (log ratio)” value was -2.81.

For the variant GGAUCUUCUCGAUCUAACAAAAAAGACAAAUCUGCCACAAAGCUUGAGAGCAUCUUCGGAUGCAGAGGCGGCAGCCUUCGGUGGCGCGAUAGCGCUAACGUUCUCAACUAUGACACUCAUAACGCGUGCUCCGUUGAAUGGAGUUUAUAAUG [C96U G117U A120U C149A], the “polymerase ribozyme fitness (log ratio)” value was at most -4.2.

GGAUCUUCUCGAUCUAACAAAAAAGACAAAUCUGCCACAAAGCUUGAGAGCAUCUUCGGAUGCAGAGGCGGCAGCCUUCGGUGGCGCGAUAGCGCUAACGUUCUCAACUAUGACACGCAAAACGCGUGCUCCGUUGAAUGGAGUUUAUCAGG [C96U U151G]: the “polymerase ribozyme fitness (log ratio)” value is -4.05.

As to GGAUCUUCUCGAUCUAACAAAAAAGACAAAUCUGCCACAAAGCUUGAGAGCAUCUUCGGAUGCAGAGGCGGCAGCCUUCGGUGGCGCGAUAGCGCUAACGUUCUCAACUAUGACACGCAAAACGCUUGCUCCGUUGCGUGGAGUUUAUCAUG [C96U G126U A137C A138G], the “polymerase ribozyme fitness (log ratio)” value was at most -4.2.

Consider GGAUCUUCUCGAUCUAACAAAAAAGACAAAUCUGCCACAAAGCUUGAGAGCAUCUUCGGAUGCAGAGGCGGCAGCCUUCGGUGGCGCGAUAGCGCUAACGCUCUCAACUAUGACACGCAAAACGCGUGCUCCGUUGAAUGGCGUUUAUCAUG [C96U U101C A142C], for which the “polymerase ribozyme fitness (log ratio)” value was -1.82.

Take GGAUCUUCUCGAUCUAACAAAAAAGACAAAUCUGCCACAAAGCUUGAGAGCAUCUUCGGAUGCAGAGGCGGCAGCCUUCGGUGGCGCGAUAGCGCUAACGUUCUCAACUAUGACACGCAAAACGCGUGCUCCGUUGAAUGCAGUUUAUCAUG [C96U G141C]: the “polymerase ribozyme fitness (log ratio)” value was -0.372.

In the case of GGAUCUUCUCGAUCUAACAAAAAAGACAAAUCUGCCACAAAGCUUGAGAGCAUCUUCGGAUGCAGAGGCGGCAGCCUUCGGUGGCGCGAUAGCGCUAACGUUCUCAACUAUGACACGCAAAACGCGUGCUCCGUUGAAUGAAGUUUAUCAUG [C96U G141A], the “polymerase ribozyme fitness (log ratio)” value was 0.0586.

On to GGAUCUUCUCGAUCUAACAAAAAAGACAAAUCUGCCACAAAGCUUGAGAGCAUCUUCGGAUGCAGAGGCGGCAGCCUUCGGUGGCGCGAUAGCGCUAACGUUCUCAACUAUGACACGCAAAACGCGUGCUCCGUUGAAUGGACUUCAUCAUG [C96U G143C U146C], for which the “polymerase ribozyme fitness (log ratio)” value was -1.75.

For GGAUCUUCUCGAUCUAACAAAAAAGACAAAUCUGCCACAAAGCUUGAGAGCAUCUUCGGAUGCAGAGGCGGCAGCCUUCGGUGGCGCGAUAGCGCCGAGGUUCUCAACUAUGACACGCAAAACGCGUGCUCCGUUGAAUGGAGUUUAUCAUG [A97G C99G], the “polymerase ribozyme fitness (log ratio)” value is -0.579.

As for GGAUCUUCUCGAUCUAACAAAAAAGACAAAUCUGCCACAAAGCUUGAGAGCAUCUUCGGAUGCAGAGGCGGCAGCCUUCGGUGGCGCGAUAGCGCCGACGUUCUCAGCUAUGACACGCAAAACGCGUGCUCCGUUGAAUGGAGUUUAUCAUG [A97G A107G], the “polymerase ribozyme fitness (log ratio)” value was -4.13.

For the variant GGAUCUUCUCGAUCUAACAAAAAAGACAAAUCUGCCACAAAGCUUGAGAGCAUCUUCGGAUGCAGAGGCGGCAGCCUUCGGUGGCGCGAUAGCGCUAACGUUCUCAACUAUGACACGCAAAACGCGUGCUCCGUUGAAUGGAGUUUAUUAUG [C96U C149U], the “polymerase ribozyme fitness (log ratio)” value was -0.874.
